Experiments:
人源B7H3(细胞表面表达) [1] = biological target: T1, 人源B7H3(细胞表面表达) (human, UniProt Q5ZPR3 29-534); experiment: flow cytometry, hybridoma supernatant on cells expressing B7H3
T1 construct: whole, on cells; in the ADCC assay the protein is the endogenous B7H3 of A375 cells; also called CD276; 人B7H3
T1 sequence (looked up): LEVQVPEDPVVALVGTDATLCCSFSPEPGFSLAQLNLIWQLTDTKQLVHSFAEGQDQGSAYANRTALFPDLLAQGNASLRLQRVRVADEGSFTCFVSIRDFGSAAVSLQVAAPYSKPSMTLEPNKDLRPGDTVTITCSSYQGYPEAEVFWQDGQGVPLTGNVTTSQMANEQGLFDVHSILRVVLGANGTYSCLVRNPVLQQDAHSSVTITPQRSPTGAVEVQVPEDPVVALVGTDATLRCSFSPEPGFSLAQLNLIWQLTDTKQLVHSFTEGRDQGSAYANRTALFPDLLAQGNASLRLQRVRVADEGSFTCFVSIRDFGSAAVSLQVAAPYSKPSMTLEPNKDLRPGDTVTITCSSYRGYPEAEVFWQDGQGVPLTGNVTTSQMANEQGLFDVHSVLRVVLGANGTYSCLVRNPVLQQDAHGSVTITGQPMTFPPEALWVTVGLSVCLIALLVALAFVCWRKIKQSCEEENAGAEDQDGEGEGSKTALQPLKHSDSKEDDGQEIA

B7H3-His重组蛋白 = biological target: T2, B7H3-His重组蛋白 (human, UniProt Q5ZPR3 29-466); experiment: SPR (Biacore), B7H3-His amine-coupled to CM5 chip, antibody as analyte
T2 construct: extracellular domain; also called 携带His标签的重组B7H3蛋白; not shown: C-terminal His tag
T2 sequence (looked up): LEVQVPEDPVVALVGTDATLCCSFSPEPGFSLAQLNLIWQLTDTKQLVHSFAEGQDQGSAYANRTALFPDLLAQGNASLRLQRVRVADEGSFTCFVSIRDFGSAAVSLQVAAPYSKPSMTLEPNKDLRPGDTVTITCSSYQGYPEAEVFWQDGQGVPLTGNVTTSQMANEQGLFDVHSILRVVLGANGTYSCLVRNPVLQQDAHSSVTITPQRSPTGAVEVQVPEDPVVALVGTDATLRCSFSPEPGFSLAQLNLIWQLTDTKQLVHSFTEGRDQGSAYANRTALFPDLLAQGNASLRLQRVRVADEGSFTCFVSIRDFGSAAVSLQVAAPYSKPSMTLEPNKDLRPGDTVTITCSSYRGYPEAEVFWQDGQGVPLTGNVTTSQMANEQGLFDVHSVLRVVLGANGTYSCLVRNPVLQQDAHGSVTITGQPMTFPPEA

鼠源B7H3(稳定表达细胞株mB7H3-CHO) = biological target: T3, 鼠源B7H3(稳定表达细胞株mB7H3-CHO) (mouse, UniProt Q8VE98 29-316); experiment: flow cytometry, hybridoma supernatant on mB7H3-CHO cells
T3 construct: whole, on cells; also called 鼠B7H3蛋白
T3 sequence (looked up): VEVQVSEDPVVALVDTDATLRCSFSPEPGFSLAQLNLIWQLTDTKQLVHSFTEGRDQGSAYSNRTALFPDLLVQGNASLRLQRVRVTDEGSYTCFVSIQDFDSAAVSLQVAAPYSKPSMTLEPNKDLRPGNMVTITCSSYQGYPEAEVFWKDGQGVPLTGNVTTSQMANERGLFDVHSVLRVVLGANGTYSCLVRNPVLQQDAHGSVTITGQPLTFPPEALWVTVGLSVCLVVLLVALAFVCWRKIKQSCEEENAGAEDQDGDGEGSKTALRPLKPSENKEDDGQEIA

人源B7H3(细胞表面表达) [2] = biological target: T1, 人源B7H3(细胞表面表达); experiment: flow cytometry on CHO cells stably expressing B7H3

Binder	binding result (人源B7H3(细胞表面表达) [1])	binding result (B7H3-His重组蛋白)	binding result (鼠源B7H3(稳定表达细胞株mB7H3-CHO))	binding result (人源B7H3(细胞表面表达) [2])
鼠源单克隆抗体J65(杂交瘤克隆J65上清) (antibody, V domains shown, Mouse monoclonal antibody as secreted by the hybridoma (supernatant used in flow cytometry); also called 杂交瘤J65; 单抗J65) VH: EVQLQESGGDLVKPGGSLKLSCEASGFTFSSHGMSWIRQTPDKRLDWVATISGGGRYSYYPDNIQGRFTISRDNAKDTLYLQMSSLQSEDTALYYCARHWDGYLDYWGQGTTLTVSS VL: DIVMTQTPASLSASVGETVTITCRPSENIYSYLAWYQQKQGKSPQLLVYNAKTLTEGAPSRFSGSGSGTQFSLKINSLQPEDFGIYYCQHHYGPPPYTFGGGTKVEIK	binds	binds	no binding	
重组鼠源单抗J65(mJ65) (antibody, V domains shown, also called 重组鼠单抗mJ65) VH: EVQLQESGGDLVKPGGSLKLSCEASGFTFSSHGMSWIRQTPDKRLDWVATISGGGRYSYYPDNIQGRFTISRDNAKDTLYLQMSSLQSEDTALYYCARHWDGYLDYWGQGTTLTVSS VL: DIVMTQTPASLSASVGETVTITCRPSENIYSYLAWYQQKQGKSPQLLVYNAKTLTEGAPSRFSGSGSGTQFSLKINSLQPEDFGIYYCQHHYGPPPYTFGGGTKVEIK				binds
嵌合抗体J65(cJ65) (antibody, V domains shown, also called cJ65-1) VH: EVQLQESGGDLVKPGGSLKLSCEASGFTFSSHGMSWIRQTPDKRLDWVATISGGGRYSYYPDNIQGRFTISRDNAKDTLYLQMSSLQSEDTALYYCARHWDGYLDYWGQGTTLTVSS VL: DIVMTQTPASLSASVGETVTITCRPSENIYSYLAWYQQKQGKSPQLLVYNAKTLTEGAPSRFSGSGSGTQFSLKINSLQPEDFGIYYCQHHYGPPPYTFGGGTKVEIK				binds
人源化单抗huJ65-2 (antibody, V domains shown, also called hJ65-2; 人源化抗体2) VH: EVQLVESGGGLVQPGGSLRLSCEASGFTFSSHGMSWVRQAPGKGLEWVATISGGGRYSYYPDNIQGRFTISRDNAKNSLYLQMNSLRAEDTAVYYCARHWDGYLDYWGQGTLVTVSS VL: DIQMTQSPSSLSASVGDRVTITCRPSENIYSYLAWYQQKPGKAPKLLVYNAKTLTEGAPSRFSGSGSGTDFTLTISSLQPEDFATYYCQHHYGPPPYTFGQGTKVEIK		binds		binds

Source: patent CN117024592A (WEST CHINA HOSPITAL SICHUAN UNIV, dated 2023)
